Values quoted from earlier work in paper PMC3529988.

Target: E2F TD (Homo sapiens) (UniProt Q01094)
Sequence of UniProt Q01094 (Q01094 368-437): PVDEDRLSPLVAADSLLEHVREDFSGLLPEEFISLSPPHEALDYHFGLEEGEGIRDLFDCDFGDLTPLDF

Kd: 0.05 µM
Substance: Rb pocket (from UniProt P06400)
